# Measurements: publication PMC10783490, “Biochemical and cellular insights into the Baz2B protein, a non-catalytic subunit of the chromatin remodeling complex” (Nucleic Acids Research, 2023)
# Numbering of substitutions follows the chain as printed.
# T1: TAM-AT1-AT2 Baz2B (Homo sapiens, UniProt Q9UIF8 721-884)
# T1 sequence: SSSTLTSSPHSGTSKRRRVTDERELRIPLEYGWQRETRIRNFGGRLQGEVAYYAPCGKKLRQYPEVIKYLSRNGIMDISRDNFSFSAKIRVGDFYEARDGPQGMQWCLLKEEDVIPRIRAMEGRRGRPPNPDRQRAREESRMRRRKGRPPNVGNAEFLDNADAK
# T2: TAM-AT1-AT2 Baz2B R765E (Homo sapiens, UniProt Q9UIF8 721-884, R765E)
# T2 sequence: T1 sequence with R45E
# T3: TAM-AT1-AT2 Baz2B Q767A (Homo sapiens, UniProt Q9UIF8 721-884, Q767A)
# T3 sequence: T1 sequence with Q47A
# T4: TAM-AT1-AT2 Baz2B R781E (Homo sapiens, UniProt Q9UIF8 721-884, R781E)
# T4 sequence: T1 sequence with R61E
# T5: TAM-AT1-AT2 Baz2B R760E (Homo sapiens, UniProt Q9UIF8 721-884, R760E)
# T5 sequence: T1 sequence with R40E
# T6: TAM-AT1-AT2 Baz2B R837E (Homo sapiens, UniProt Q9UIF8 721-884, R837E)
# T6 sequence: T1 sequence with R117E
# T7: TAM-AT1-AT2 Baz2B L766A (Homo sapiens, UniProt Q9UIF8 721-884, L766A)
# T7 sequence: T1 sequence with L46A
# Columns and labels:
# Details in all cases: protein: recombinant; tags: His6
# TAM-AT1-AT2 Baz2B [1] = biological target: T1, TAM-AT1-AT2 Baz2B; test: EMSA; mutant series; EMSA: 20 mM HEPES pH 7.5, 30 mM KCl, 1 mM EDTA, 10 mM (NH4)2SO4, 1 mM DTT, 4 C, 10 nM probe; MST: same plus 0.1 ug/ml BSA, 5 nM probe, 25 C; GST-AT-hook and bromodomain EMSA as in cited refs
# TAM-AT1-AT2 Baz2B [2] = biological target: T1, TAM-AT1-AT2 Baz2B; test: EMSA; EMSA: 20 mM HEPES pH 7.5, 30 mM KCl, 1 mM EDTA, 10 mM (NH4)2SO4, 1 mM DTT, 4 C, 10 nM probe; MST: same plus 0.1 ug/ml BSA, 5 nM probe, 25 C; GST-AT-hook and bromodomain EMSA as in cited refs
# TAM-AT1-AT2 Baz2B R765E = biological target: T2, TAM-AT1-AT2 Baz2B R765E; test: as above
# TAM-AT1-AT2 Baz2B Q767A = biological target: T3, TAM-AT1-AT2 Baz2B Q767A; test: as above
# TAM-AT1-AT2 Baz2B R781E = biological target: T4, TAM-AT1-AT2 Baz2B R781E; test: as above
# TAM-AT1-AT2 Baz2B R760E = biological target: T5, TAM-AT1-AT2 Baz2B R760E; test: as above
# TAM-AT1-AT2 Baz2B R837E = biological target: T6, TAM-AT1-AT2 Baz2B R837E; test: as above
# TAM-AT1-AT2 Baz2B L766A = biological target: T7, TAM-AT1-AT2 Baz2B L766A; test: as above
# TAM-AT1-AT2 Baz2B [3] = biological target: T1, TAM-AT1-AT2 Baz2B; test: MST; EMSA: 20 mM HEPES pH 7.5, 30 mM KCl, 1 mM EDTA, 10 mM (NH4)2SO4, 1 mM DTT, 4 C, 10 nM probe; MST: same plus 0.1 ug/ml BSA, 5 nM probe, 25 C; GST-AT-hook and bromodomain EMSA as in cited refs
binder,measurement,setting,value
ATCAGTTCTCCGGGTTGTCAGGTCGACCAGTTGTTCCTTTGAGGT (ssDNA) [45 nt ssDNA FLP015],Kd,TAM-AT1-AT2 Baz2B [1],228 ± 97.8 nM
same,Kd,TAM-AT1-AT2 Baz2B [2],122 nM
same,Kd,TAM-AT1-AT2 Baz2B R765E,93.1 ± 13 nM
same,Kd,TAM-AT1-AT2 Baz2B Q767A,206 ± 81 nM
same,Kd,TAM-AT1-AT2 Baz2B R781E,220 ± 110 nM
same,Kd,TAM-AT1-AT2 Baz2B R760E,161 ± 44.7 nM
same,Kd,TAM-AT1-AT2 Baz2B R837E,248 ± 84.2 nM
same,Kd,TAM-AT1-AT2 Baz2B L766A,275 ± 82.9 nM
same,Kd,TAM-AT1-AT2 Baz2B [3],160 nM
